In a protein production outcome set (Wang et al. 2014) one finds protein production data, which are given here for 22 sequences.

This data set in a line: label from the status in PepcDB records.
Regarding “MAYNPKILQKPKEGEEITIKDNKLHVPNHPIIPFIEGDGIGSDITPAMIKVVDSAVQKAYKGEKKIAWYEVFVGEKCYQKFKDYKELSPEEQWLLPDTIEAINHYKVSIKGPLTTPIGEGFRSLNVALRQKMDLYVCLRPVRWYGSPSPVKEPQKVDMVIFRENSEDIYAGIEWQEGSAEAKKLIHFLQNELKVKKIRFPESSGIGVKPISKEGTERLVRKAIEYAIDNDKPSVTFVHKGNIMKYTEGAFMKWGYALAQKEFNAQVIDKGPWCSLKNPKNGKEIIIKDMIADAFLQQILLRPSEYSVIATMNLNGDYISDALAAMVGGIGIAPGANLNDTVGMFEATHGTAPKYAGLDKVNPGSIILSAEMMLRHMGWVEAADLIVSAMEKAIKSKKVTYDFARLMDGAKEVKCSEFASVMIENM”, the protein production entry is reported as “failed”.
The same measure for “MHKEENMSDLYLKLVNTPVGKTAAQSLGLPSPAPLKRLKRVDQPFIEGDVLIGAGNGARAIATLGSIVGASPATLHHATGPETLAESAKTSNKAQALDITGEVSGKFSALIFDASGLQKPDELRALYDFFHPTIRKLATNGRVLVIGQDPHTCRKAPQAAAQQALEGFVRAVGKEIGKKGATANLVWIAPNAENQLDSSVRFFLSPRSAYVSGQVVRIGKADEAKATNPVAPLAGKVALVTGASRGIGAAIAETLARDGATVIGLDIPPALEELQKVTGALKGKALACDITDEKAPKLIADFIEKETGGVDFVIHNAGITRDKTLGNMPEHFWDMTIAVNLTAEELIDEELAERKLMRENGRIVCISSISGIAGNFGQTNYSCAKSGVIGYVEAMARHLKNGITINAIAPGFIETQMTAAMPFTIREAGRRMNSLSQGGQPVDVAEAIAWYCNPASAGVNGNVVRVCGQSLIGK”: “failed”; for “MMLNRKDADYYLGKEIMLARIRRGALIPAKVNEEHFWLLIGISSIHSEKIIQALRDYLVFGVSRKDVCERYEVNNGYFSTSLNRLSRISQAAAQMVVYYSLEHHHHHH”: “not failed”; for “AADHVKGDGKLTSKKISVADYNEIKVDGVIDFNYEQSDDPSTVEVTVDQNLHPYVNIEVKDRVLTIAFKGAKVDHFTKFIVKTNSKWLAAAKVSGNANFMVNSPLTGDETVIKANANSLVQLKETVTVGKLDLNVSGSANMVVNHLEADKIECDIDGSGSITIKKGNAKEGDYSIVSSGDIHAFGLAVPQLSCKVTGNGLAEVHATDNLKANVVGKGNIRYKGPTAVQQRIIGKGTVEEVKE”: “not failed”.
Take “MASNRCAVCKILNETCAPMCIYAPHFPSNDASFKVIIQIFGAVNVCNILDNLEFPEQREIAANCLRYAAEARIRNPISGCHDMILQYKNILNNVEQDIESAVNELGTYVGHDQVPKFYDLPMPDDFLMTPVSLDSFIAKIKSLNEVQKNQLMQLPTAADNAPMIMNSIFGKMEDKNLKDGHRADGASTSAGK”: the protein production entry is “failed”.
Then “AYPDFAPQKFKEKTQGQVKILEDSFLKSSFPTQAELDRLRVETKLSRREIDSWFSERRKLRDSMEQAVLDSMGSGK”, with “not failed”; and “MGHIKKGELTQEEKELLEVIGKGTVQEAGRLLSSKNVHVNCLDENGMTPLMHAAYKGKLEMCKLLLRHGADASCHQHEHGYTALMFAALSGNKDITWVMLEAGAETDVVNSVGRTAAQMAAFVGQHDCVAIINNFFPRERLDYYTKPQGLDKEPKQPPKLAGPLHKIITTTNLHPVKIVMLVSENPLLADAAALGKCYRVMDLICEKCMKQRDMNEVLAMKMHYISCIFQKCITFLKEGENKLDTLIRSLLKGRASDGFPVYQEKIIRESIRKFPYCEATLLQQLVRSIAPVEIGSDPTAFSVLTQAITGQVGFVDVEFCTTCGEKGASKRCSVCKMVIYCDQTCQKTHWFAHKKMCKSLKDVYEKQQIEAAKHKRQEEKNGNPNVSSNHVNEDQPEAEEGITQENSIPSDSVEGEKEAANDTGLASAQDAPTGPQLSEE”, with “failed”.
Then “MKLEAEAVAPSNIAIVKYWGKRDRELNLPLNSSLSISLDSLWVRSRVIFDESLDKDEVIINGKRLSENEVREYAGRVLRRFRDLYGKELFARVESTTNFPSSAGLASSAAGIAALTYASNAALGLGLSNRELSKIARVGSGSACRSMFGGFVKWNRGELESGDDSFCEEIFPPDHWPDLVDIIPIFGEEKKKVSSRTGMENTATSSALMRCRLQFIEETFNEVIDAIRTKNAGKFFQLTMRHSNSMHAVILDSWPPMNYLNEKSFRVMEWVVEFGKAAYTFDAGPNPHIFVLEKDVDEVLKFLNEIGSTKTIVSRVGKGPYLI”, with “failed”; and “MIDMFPMEKGEEQETYELIVRVFHKYVAPVYSENGVARFLGMLSPEGLSEMNNGKNSFVIVARDQSKIIGMISVINDSHIALFFVSPRYQGKGIGKNILDEAIKNCLNRNPELSAVTVSSSPNSKSFYEEAGFEVIGNEINEEGLRFTPMRKLLRQLEHHHHHH”, with “failed”.
Then “MKLTIIRLENFSDQDRIDLQKIWPEYSPSSLQVDDNYRIYAARFNERLLAAVRVTLSGTEGALDSLRVREVTRRRGVGQYLLEEVLRNNPDVSCWWMADAGVEDRGVMTAFMRALGFTAQQGGWEKH”, with “failed”; and “SSETPAQCSIKQERISYTPPESPVPSYASSTPLHVPVPRALRMEEDSIRLPAHLRLQPIYWSRDDVAQWLKWAENEFSLRPIDSNTFEMNGKALLLLTKEDFRYRSPHSGDVLYELLQHILKQRKPRILFSPFFHPGNSIHTQPEVILHQNHEEDNCVQRTPRPSVDNVHHNPPTIELLHRSRSPITTNHRPSPDPEQRPLRSPLDNMIRRLSPAERAQGPRPHQENNHQESYPLSVSPMENNHCPASSESHPKPSSPRQESTRVIQLMPSPIMHPLILNPRHSVDFKQSRLSEDGLHREGKPINLSHREDLAYMNHIMVSVSPPEEHAMPIGRIADCRLLWDYVYQLLSDSRYENFIRWEDKESKIFRIVDPNGLARLWGNHKNRTNMTYEKMSRALRHYYKLNIIRKEPGQRLLFRFMKTPDEIMSGRTDRLEHLESQELDEQIYQEDEC”, with “not failed”; and “MGLFSKRQIGNQYETLAKQYLQRQGLRFLDQNYLTKFGEIDLIFQQDETIVFVEVKYRKNDHFGSAAEMVTNAKMRKLIKTAQVWLSQQRTMNTIDYRFDVIAIHDSGRDINWIQNAISEG”, with “failed”.
Take “MKNETLHTQEDIIKMLDSLLRPAEPFWNEFYANREKDVPFFENVPDENLVSYIQKKRVSKGKVLELGCGPGRNAIYLANEGFDVTAVDVSIEGINWAKERALAKGVEIEFICDSIFNLEVQNEFDFVYDSGCLHHIPPHRRVNYVDLIKNALKSGGYFGLTCFAAGDLDERNGSEITDWDVYRGWSLQGGLAYSEEKLREIFKGFEVIEIRKMEQIEQPNTMFGESFLWTALFKKNLEHHHHHH”: the protein production entry was “not failed”.
As for “QMNTVFIKNEGVTEGEIATIGEHTAEISGVSTGTDWTRDYSQSGALRSLLGTVSTEKQGLPAEEVDEYLKKGYARNDRVGTSYLEKQYEDVLQGKKAKSEVVLDNNGKIVSQTPISKGEKGSNLKLTID”, the protein production result was “failed”.
Take “MSKNNTLSMSPNFFVSGGVLLAIFTLIHLLYAGLIRPAAEVAMAEKGTEALTAFSVIFKDVEQQVCISLMLFCLFLMLYKLWRLIDEEEIYSRDLLESYDKSEALDVDAALNDLESSAYKETPAYSTWINCIRRFKNTKNVQHAADTIESSVDNIAIQLESGNNMIRYIIWAIPSIGFVGTVRGIGSALAQADKALDGDIAGMTASLGVAFNSTLVALFISLILMLFMHLLNSRQDKMVIRTQESCEKHLLSHLHS”: the protein production result is on record as “failed”.
Regarding “MSERNLPLEYHPFPAILPKSATVAMLGTFPPTSEKRCMEFHYPNFQNDMWRIMGLLFYKNLDHFRVDQEKRFDPVRIEAFLREKGIALCSSAQTAIRLKGNASDKDLKIIDAIDMQALLTELPQLKWLFTTGGLATETLLSLLPEKSKLPKTNEWINYPYTTDRTLYLYRLPSTSRAYPLSLAKKVEAYRQFFVRVGVL”, the protein production entry is on record as “failed”.
As for “MTNDDSLKTYRAKRDFSVTPEPSGVASGKTAIKSTAKVLSFVVQKHWATRLHYDFRLELEGTMKSWAVPKGPSFDPNDKRMAVHVEDHPISYNSFEGEIPSGQYGAGKVIIWDKGTWIPLEDPHKGYRDGKLKFELRGLKLKGHWALVRMRKEENKKQEPWLLIKEKDEYVRSSREYSVVDEMPDSVAELDVPDVPQPSKASATSGSSSPKSSSIFRKGTKTTLPDNARKAELPRTLTPELATLVDEPPVDPEEWIYEIKFDGYRMLSRIEGGEVRLITRNGNDWSHKLPHLIKALGKLKLKSSWLDGEIAVLDENGIPDFQSLQNAFDSAHTESIIYYLFDVPFYEGYDLRDASLVERRALLQKLFEAHAPDEIRFSDVFDVSPAEILDSACRLGLEGVIGKRKTSVYVSRRSQDWIKLKCKNRQEFVIGGYTDPKGTRKGIGSLLLGYYDEDRKLRYAGNVGAGFSDKTLEDLRARLDRIALTDSPFVKANGLDKNAHWVEPRLIAEVSFGEWTRGGHIRHSVFHGLRSDKKADVIVREKPVHPAAKSAPASAIPKSLKVTNPDRVIDPSTGFTKVDLIRYYALVAPLMLPHLARRPVSLVRAPEGVSGELFFQKHWEKENMPGIEQLDPSLDPDHPPLLEVSTAEGLLSAVQMNVIEFHTWNATKNVIGKPDRIAFDLDPGSGVEWALIQESAQLVNVFLRELGLKSFLKTSGGKGLHIVVPIRRLRDWDTVKGFSQAIVQHLAKTIPTRFTAKSGPRNRVGKIFIDYLRNGFGATTVSAWSVRARPGLGVSVPLAWEELSSLKSSTRWSASNIHERLDKGNDPWADYAETNQSIVPAMKKLGFTPSSKA”, the protein production entry is “failed”.
The same measure for “PGIERLAEEATASFPEARIAVLSSDMFGTARALKERIEAIAAGEADIVIGTQLVAKGHNFPLLTLVGVIDADLGLQGSDLRAAERTFQLMRQVAGRAGRAEKPGQALLQTYQPE”: “failed”; for “MNPAITPILLGLVAGITVTFGALTYIVVGRRLGRRGQGVLNALAGGVLAYLALETGHESAAYVEQFATRETLDSFLAGLMVTSIALLGTWLLLSYVERGYSTLVRAPPGLMVSLTVASALGLHNLGEGLAIAASLIEGKVSLAILFAVGFAIHNYTEGFPIAAPLAGEKKRTGLRTIIGLSLLAGLPVVPGAMVYYLGSNLPGLAIATLYTVAAASIVYAMLHINLSALSRLGGLSSPSFWSSLFLGIALAYVTESIILIAGLH”: “failed”.
The same measure for “MVRYPLEPVLSIKKDRVDRAEKVVKEKRRLLELEQEKLRERESERDKVKNHYMQKIRQLREQLDDGTTSDAILKMKAYIKVVAIQLSEEEEKVNKQKENVLAASKELERAEVELTKRRKEEEKTRLHKEEWMKEALKEEARQEEKEQDEMGQLLHQLHKQKQRESGEN”: “failed”; for “SLETVQLRNPPRRQLKKLDEDSLTKQPEEVFDVLEKLGEGSYGSVYKAIHKETGQIVAIKQVPVESDLQEIIKEISIMQQCDSPHVVKYYGSYFKNTDLWIVMEYCGAGSVSDIIRLRNKTLTEDEIATILQSTLKGLEYLHFMRKIHRDIKAGNILLNTEGHAKLADFGVAGQLTDTMAKRNTVIGTPFWMAPEVIQEIGYNCVADIWSLGITAIEMAEGKPPYADIHPMRAIFMIPTNPPPTFRKPELWSDNFTDFVKQCLVKSPEQRATATQLLQHPFVRSAKGVSILRDLINEAMDVKLKRQESQQREEG”: “not failed”; for “GNLEEMNIDPDNATQTHPKLLLTQICMNAFKRGTDGMYATKKVIQADGESADQYYKWTRGSFGYYDNLRNVQKMGEEAERVNAPVYTALTKFFRAYYFYELTLRFGDIPYSQALKGEKEEIYTPEYDAQEDVFAGILQELREADEILANDASVIDGDIIYNGNSTQWRKLINSFRLKVLMTLSNHTTVGNINIASEFKNIATNSPLMNSLADNGQLVYLDQQGNRYPQFNAQWSGYYMDDTFIQRMRERRDPRLFIFSAQTNKGKTEGKPIDDFSSYEGGDPAAPYSDAIIKVSEGTISPINDRFRTDPIVEPTMLMGYAELQQILAEAVVRGWISGNAQTYYEKGIRASFSFYETHAKDYAGYLNENAVAQYLKEPLVDFTQASGTEEQIERIIMQKYLVTFYQGNWDSFYEQLRTGYPDFRRPAGTEIPKRWMYPQGEYDNNGTNVETAITRQFGAGNDKINQATWWQKKS”: “not failed”.
